Reference: the nanobody polyreactivity screen of Harvey et al. (2022)

Experiment: yeast display, Sf9 membrane polyspecificity reagent, FACS + sequencing; frameworks hold sequencing errors
Summary of the method: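 Nanobodies from a synthetic yeast display library (Saccharomyces cerevisiae BJ5465), induced 36–48 hours with galactose, were stained 1 hour at 4 °C with 10% biotinylated, detergent-solubilized Sf9 membrane reagent, enriched on streptavidin microbeads, then FACS-sorted. Anti-HA (expression) and streptavidin (reagent binding) fluorescence set low and high (top ~1%) gates. Polyreactivity labels come from the gate of origin. Genes were colony-PCR amplified, MiSeq 2 × 250 sequenced and filtered by CDR length.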

Sequence | polyreactivity (PSR sort gate)
QVQLVESGGGLVQAGGSLRLSCAASGYIFKYYAMGWYIQAPGKERELVASITSGGRTNYADSVKGRFTISRDNAKNTVYLQMNSLKPEDTAVYYCAATSKYQQDPRRYDYWGHGTQVTVSS | high polyreactivity
QVQLVESGGGLVQAGGSLRLSCAASGYIFLANAMGWYRQAPGKVRELVAAITSGGGGTYYADSVKGRFTFSRDNAKNTVYLQMNSLKPEDTAVYYCAADHGRDGSSFEYWGQGTQVTVSS | low polyreactivity
QVQLVESGGGLVQAGGSLRLSCAASGYIFLRNAMGWSRQAPGKERELVASISSDDTSTHYADSVKGRFTISRDNAKNTVYLQMNSLKPEDTAVYYCAARNTPAYIDYNYWGQGTQVTVSS | low polyreactivity
QVQLVESGGGLVQAGGSLRLSCAASGYIFPGNAMGWYRQAPGKERELVAAINWSGTRTYYADSVKGRFTISRDNAKNTVYLQLNSLKPEDTAVYYCNRVWRVPIETYTRYDYWGQGTQVTVSS | high polyreactivity
QVQLVESGGGLVQAGGSLRLSCAASGYIFRGYVMGWYRQAPGKERELVAAISYGDGGTYYADSVKGRFTLSRDNAKNTVYLQMNSLKPEDTAVYYCAAPPYSFWGDYYSAGYYYWGQGTQVTVSS | low polyreactivity
QVQLVESGGGLVQAGGSLRLSCAASGYIFRIYAMGWYRQAPGKERELVARISSGGGTNYADSVKGRFTISRDNAKNTVYLQMNSLKPEDTAVYYCNAGYGSQRGGVFFYRMGYWGQGTQVTVSS | high polyreactivity
QVQLVESGGGLVQAGGSLRLSCAASGYIFRNVMGWYRQAPGKERELVATISGSGGSTYYADSVKGRFTISRDNAKNTVYLQMNSLKPEDTAVYDCSKRWYRLGRYGGYDYWGQGTQVTVSS | high polyreactivity
QVQLVESGGGLVQAGGSLRLSCAASGYIFRWYAMGWYRQAPGKERELVARITNGARTYYADSVKGRFTISRDNAKNTVYLQMNSLKPEDTAVYYCAATVPPTYRRYYYWGQGTQVTVSS | high polyreactivity
QVQLVESGGGLVQAGGSLRLSCAASGYIFRYYAMGRYRQAPGKERELVAAITARAGRTYYADSVKGRFTISRDNAKNTVYLQMTSLKPEDTAVYYCAAVRTKVWRGPEMDYWGQGTQVNVSS | high polyreactivity
QVQLVESGGGLVQAGGSLRLSCAASGYIFRYYAMGWYRQAPGKEREFVAAISRNGGSTYYADSVKGRFTISRDNAKNTVYLQMNSLKPEDTAVYYCNKRVGFLYKYDYWGQGTQVTVSS | high polyreactivity
QVQLVESGGGLVQAGGSLRLSCAASGYIFSLNGMGWYRQAPGKVRELVAAITVSGGRTYYADSVKGRFTISRDNAKNTVYLQMNSLKPEDTAVYYCAKRGKYSYWPYYKYDYWGQGTQVTVSS | high polyreactivity
QVQLVESGGGLVQAGGSLRLSCAASGYIFTFYTMGWYRQEPGKERDLVAAISQTGGRTYYADSVKGRFTISRDNAKNTVYLEMNSLKPEDTAVYYCAARSKRLAHDYWGQGTQVTVSS | high polyreactivity
QVQLVESGGGLVQAGGSLRLSCAASGYIFTGNAMGWYRQAPGKERELVAAIDSGGSTYADSVKGRFTISRDNAKNTVYLQMNSLKPEDTAVYYCNADQNEDTYLSYYGDYDYWGQGTQVTVTS | low polyreactivity
QVQLVESGGGLVQAGGSLRLSCAASGYIFTTNAMGWYRQAPGKERELVAAISSSGGSTYYADSVKGRFTISRDNAKNTVYLQMNSLKPEDTAVYYCAVRRSTGSRSPPMYYWGQGTQVTVSS | high polyreactivity
QVQLVESGGGLVQAGGSLRLSCAASGYIFTYYAMGWYRQAPGKERELVAAISTSGTSTYYADSVKGRFTISRDNAKNTVYLQMNSLKPEDTAVYYCAKRSGARHRLMDYWGQGTQVTVSS | low polyreactivity
QVQLVESGGGLVQAGGSLRLSCAASGYIFVIYAMGRYRQAPGKERELVAAITDGGDNTYYADSVKGRFTISRDNAKNTVYLHMNSLKPEDTAVYYCAADVYLPIAAWEGSLEYYYWGQGTQVTVSS | high polyreactivity
QVQLVESGGGLVQAGGSLRLSCAASGYIFVNYGMGWYRQAPGKERELVAVITNGGRTNYADSVKGRFTISRDNAKNTVYLQMNSLKPEDTAVYYCNARSFRQYYYWGQGTQVTVSS | high polyreactivity
QVQLVESGGGLVQAGGSLRLSCAASGYIFVVNAMGLDRQAPGKERELVAAIDWGGGSTYADSVKGRFTISRDNAKNTVYLQMNSLKPEDTAVYYCAADLWPYPNDYWGQGTQVTVSS | low polyreactivity
QVQLVESGGGLVQAGGSLRLSCAASGYIFVVNAMGWYRQAPGKERELVAAIDWGGGSTYADSVKGRFTISRDNAKNTVYLQMYSLKPEDTAVYYCAADLWPYPNDYWGQGTQVTVSS | low polyreactivity
QVQLVESGGGLVQAGGSLRLSCAASGYIFWSNTMGWYRQAPGKERELVAAISQSTASTYYADSVKGRFTISRDNAKNTVYLQMNSLKPEDTAVYYCAAYYNFGDYEYDYWGQGTQVTVSS | low polyreactivity
QVQLVESGGGLVQAGGSLRLSCAASGYIFYANAMGWYRQAPGKERELVASISTGGNTNYADSVKGRFTISRDNAKNTVYLQMKSLKPEDTAVYYCAVRSTVPYLWRTPVTRDYWGQGTQVTVSS | low polyreactivity
QVQLVESGGGLVQAGGSLRLSCAASGYIFYIYAKGWNRQAPGKERELVAAISYSDGTTYYADSVKGRFTISRDNAKNTVYLQMNSLKAEDTAVYYCAADLWVGLVSLWDGYVEYDYWGQGTQVTVSS | low polyreactivity

Sequence | polyreactivity (PSR sort gate)
QVQLVESGGGLVQAGGSLRLSCAASGYIFYYNTMGWYRQAPGKERELVAAISATGGRTYYADSVKGRFTISRDNAKNTVYLQMNSLKPEDTAVYYCAKRGISPYGYWGQGTQVTVSS | high polyreactivity
QVQLVESGGGLVQAGGSLRLSCAASGYIFYYYAMGWYRQAPGKERELVAAINRSGTSTYYADSVKGRFTISRDNAKNTVYLQMNSLKPEDTAVYYCAAVAGNKLYYWGQGTQVTVSS | high polyreactivity
QVQLVESGGGLVQAGGSLRLSCAASGYIIGRYVMGWYRQAPGNERELVAAITASGGSTNYADSVKGRFTISRDNAKNTVYLQMNSLKPEDTAVYYCAADYSWYYFDFEYWGQGTQVTVSS | high polyreactivity
QVQLVESGGGLVQAGGSLRLSCAASGYILFAYAMGWYRQAPGKERALVATITTSGGITYYADSVKGRFTISRDNAKNTVYLQMNSLKPEDTAVYYCAAAEGGGLVTYDYWGQGTQVTVSS | low polyreactivity
QVQLVESGGGLVQAGGSLRLSCAASGYILQINAMGWYRQAPGKERELVAAISISGGNTYYADSVKGRFTISRDNAKNTVYLQMNSLKPEDTAVYYCAAYRYYSYLVRYGLLLAYYYWGQGTQVTVSS | low polyreactivity
QVQLVESGGGLVQAGGSLRLSCAASGYILWNAIGWYRQAPGKERELVAAITSGGSTYYADSVKGRFSISRDNAKNTVYLQMNSRKPEDTAVYDCNQESYFDTYRRYDSWGQGTQETVSS | low polyreactivity
QVQLVESGGGLVQAGGSLRLSCAASGYILYPYAMGWYRQAPGKERELVAAIRQRGGSTYYADSVKGRFTISRDYAKNTVYLQMNSLKPEDTAVYYCAAYLSPKRALTRGYGYWGQGTQVTVSS | high polyreactivity
QVQLVESGGGLVQAGGSLRLSCAASGYISDTNAMGWYRQAPGKEREFVAVISSSVGSTYYADSVKGRFTISRDNAKNTVYLQMNSLKPEDTAVYYCNAEFNTVFLYWSLDSVRGYDYWGQGTQVTVSS | high polyreactivity
QVQLVESGGGLVQAGGSLRLSCAASGYIVRNAMGWYRQAPGKERELVAAISRRGGSTYYADSVKGRFTISRDNAKNTVYLQMNSLKPEDTAVYYCAKDKVIPSFDADYYYWGQGTQVTVSS | high polyreactivity
QVQLVESGGGLVQAGGSLRLSCAASGYIVTSYTMGWYIQAPGKERELVAAISASDGSTYADSVKGRFTISRDNAKNTVYLQMNSLKPEDTAVYYCNKAAYGGHRTSEQVGWVYLYDYWGQGTQVTVSS | low polyreactivity
QVQLVESGGGLVQAGGSLRLSCAASGYIYYYYAMGWYRQAPVKERELVAAITFSGGSTYYADSVKGRFTISRDNAKNTVYLQMNSLKPEDTAVYYCAKVELRDSALLGSDEYDYLGQGTQVTVSS | low polyreactivity
QVQLVESGGGLVQAGGSLRLSCAASGYLLGHYAMGWYRQATGKERELVAAISWSGGSTSYADSVKGRFTISRDKAKITFYLQMNSLKREDTAVYDCASAYYAYSRHAGGYWGQGTQVTVSS | low polyreactivity
QVQLVESGGGLVQAGGSLRLSCAASGYNFGWYAMGWYRQAPGKERELVAGISSAGSTNYADSVKGRFTISRDNAKNTVYLQMNSLKPEDTSVDYCARDKWGLRYAPTVDYWGQGTQVTVSS | high polyreactivity
QVQLVESGGGLVQAGGSLRLSCAASGYSFQKYGMGWYRQAPGKERELVAAITRSSGNTYYADSVKGRFTISRDTAKNTVYLQMNSLKPEDTAVYDCAAFYWGGVKYNYWGQGTQVTVSS | high polyreactivity
QVQLVESGGGLVQAGGSLRLSCAASGYSFRIYAMGWYRQAPGKERELVATITNGGSTHYADSEKGRFTISRDNAKNTVYLQMNSLKPEDTAVYYCAAYLPGWELRDYGYWGQGTQVTVSS | high polyreactivity
QVQLVESGGGLVQAGGSLRLSCAASGYSFSPNAMGWYRQEPGKDRELVAAISSGVSTDYADSVKGRFSISRDNAKNTVYLQMNSLKPEDTAVYYCAADDQYRVTLGYVYWGQGTQVTVSS | low polyreactivity
QVQLVESGGGLVQAGGSLRLSCAASGYTFAGNAMGWYRQAAGKERELVAAISRSGGRTYYADSVKGRFTISRDNAKNTVYLQMNSLNPEDTAVYYCAAYFPRTLFEFGYWGQGTQVTVSS | high polyreactivity
QVQLVESGGGLVQAGGSLRLSCAASGYTFALYAMGWYRQAPGKERELVAAITDSDGSTYADSVKGRFTISRDNAKNTVYLQMNSLKPEDNAVYYCAGRDPHLQGSSYLSYLTMDYWGQGTQVTVSS | low polyreactivity
QVQLVESGGGLVQAGGSLRLSCAASGYTFATKVMGWYRQAPGKERELVATITGSGGSTYYADSVKGRLTISRDNAKNTVYLQMNSLTPEDTAVYNCAARLYGWYYGGYTRYDYWGQGTQVTVSS | high polyreactivity
QVQLVESGGGLVQAGGSLRLSCAASGYTFCVYVMGWYRQAPGKERELVAAISGSTYYADSVKGRFTISRDNAKNTVYLQMNSLKPEDTAVYYCAAESYFFSPRTREKFDYWGQGTQVTVSS | low polyreactivity
QVQLVESGGGLVQAGGSLRLSCAASGYTFDINAMGWYRQAPGKERELVADISANDGSTSYADSVKGRFTISRDNAKNTVYLQMNSLKPEDTAVYYCAADYIWNPTWSVGYGDPGYDYCGQGTQVTVSS | low polyreactivity
